Publication PMC6249252, “COMP and TSP-4 interact specifically with the novel GXKGHR motif only found in fibrillar collagens” (Scientific Reports, 2018)

Target: collagen type XI (UniProt P12107 36-1563; P13942 28-1736, hydroxyproline/hydroxylysine expected in native collagen; preparation and processing not stated; alpha3(XI) taken as COL2A1 product)
Assay: ELISA; collagen model peptide or collagen XI coated; COMP or TSP-4 at indicated concentrations in TBS-T with 0.25% BSA, 1 h, room temperature; detected with anti-COMP or anti-TSP-4 antibody; four-parameter logistic fit; apparent KD
Conditions: both partners purified

B1: cartilage oligomeric matrix protein (COMP), wild type, pentameric (natural protein)
chain: not shown
notes: cartilage oligomeric matrix protein (COMP, TSP-5); residue numbers Asp593-Asp595 as in PDB 3FBY; also called COMP wt; TSP-5; source: HEK293 (EBNA), pCEP vector, serum-free supernatant, purified (Strep-Tactin)
**Q.** Which Kd does the source give for B1 here?
**A.** 20 nM
